Measurements from patent US10577406B2, “FKBP-L polypeptides and uses in angiogenesis-mediated disorders” (ALMAC DISCOVERY LIMITED, priority 2006, dated 2020).

B1: full length recombinant FKBP-L: recombinant full length his-tagged FKBP-L protein (SEQ ID NO: 1) expressed in BL21 (DE3) (protein, listed as Homo sapiens)
chain: MRGSHHHHHHGMASMTGGQQMGRDLYDDDDKDRWGSMETPPVNTIGEKDTSQPQQEWEKNLRENLDSVIQIRQQPRDPPTETLELEVSPDPASQILEHTQGAEKLVAELEGDSHKSHGSTSQMPEALQASDLWYCPDGSFVKKIVIRGHGLDKPKLGSCCRVLALGFPFGSGPPEGWTELTMGVGPWREETWGELIEKCLESMCQGEEAELQLPGHTGPPVGLTLASFTQGRDSWELETSEKEALAREERARGTELFRAGNPEGAARCYGRALRLLLTLPPPGPPERTVLHANLAACQLLLGQPQLAAQSCDRVLEREPGHLKALYRRGVAQAALGNLEKATADLKKVLAIDPKNRAAQEELGKVVIQGKNQDAGLAQGLRKMFG
modifications: His tag

Experiments:
[1] = system: MDA231 (breast tumor cell line; CD44 +ve); assay: tumor cell migration, wound closure assay, MDA231; type: cell-based
Protocol: In these experiments, the effect of recombinant FKBP-L on tumor cell migration was assessed. The in vitro migration assay used in these studies is a modified version of the method described by Ashton et al (1999) see supra. PC3, MDA231, and HT29 tumor cells were plated into individual chambers on a glass slide and grown to 90% confluence overnight. The medium was removed and the monolayers wounded. The monolayer was re-supplemented with fresh medium and the required volume of His-tagged recombinant FKBP-L protein (SEQ ID NO: 1) was added to give the final concentrations shown. The monolayers were incubated for 24 hours and then fixed in 4% PBS buffered paraformaldehyde.
The extent of “wound” closure was blindly assessed microscopically by an independent investigator and quantified using a calibrated eyepiece graticule (1 mm/100 μm graduation) at 20× magnification (Olympus BX 50). The extent of closure in the FKBP-L treated slides was compared to time matched sham-treated controls and the percent inhibition of wound closure compared to time matched controls calculated. […]
The extent of “wound” closure was blindly assessed microscopically by an independent investigator and quantified using a calibrated eyepiece graticule (1 mm/100 μm graduation) at 20× magnification (Olympus BX 50). […]

HMEC-1 = assay: in vitro migration assay (wound closure / wound scrape), recombinant protein or peptides added to medium; type: cell-based, Human
Protocol: (§1) The in vitro migration assay used in these studies is a modified version of the method described by Ashton et al (1999). HMEC-1 were plated into individual chambers on a glass slide and grown to 90% confluence overnight. The medium was removed and the monolayer wounded. The monolayer was re-supplemented with fresh medium and the required volume of recombinant full length his-tagged FKBP-L protein (SEQ ID NO: 1) was added to give the required final concentration.
The monolayers were incubated for 7 hours after exposure to recombinant FKBP-L protein and then fixed in 4% PBS buffered paraformaldehyde. The extent of “wound” closure was blindly assessed microscopically by an independent investigator and quantified using a calibrated eyepiece graticule (1 mm/100 μm graduation) at 20× magnification (Olympus BX 50). The extent of closure in the FKBP-L treated slides was compared to time matched sham treated controls and the % inhibition of wound closure compared to time matched controls calculated.
The following studies were performed to determine the effect of a full length His-tagged recombinant FKBP-L protein on the wound closure assay measured as a function of time. Again, the in vitro migration assay used in these studies is a modified version of the method described by Ashton et al (1999). HMEC-1 were plated into individual chambers on a glass slide and grown to 90% confluence overnight. The medium was removed and the monolayer wounded. The monolayer was re-supplemented with fresh medium and the required volume of full length his-tagged recombinant FKBP-L (i.e., SEQ ID NO: 1) added to give the required final concentration 750 ngml^−1.
Slides were removed at fixed time points until complete closure of the wound, then fixed in 4% PBS buffered paraformaldehyde. The extent of “wound” closure was blindly assessed microscopically by an independent investigator and quantified using a calibrated eyepiece graticule (1 mm/100 μm graduation) at 20× magnification (Olympus BX 50). The extent of closure in the FKBP-L treated slides was compared to time matched sham treated controls and the % inhibition of wound closure compared to time matched controls calculated.
as §1, with “al. (1999) see supra.” for “al (1999).”, “the following peptides” for “recombinant full length his-tagged FKBP-L protein (SEQ ID NO: 1)”, “achieve a dose range from 10^−14-10^−6 M.” for “give the required final concentration.”
The monolayers were incubated for 7 h and then fixed in 4% PBS buffered paraformaldehyde. The extent of “wound” closure was blindly assessed microscopically by an independent investigator and quantified using a calibrated eyepiece graticule (1 mm/100 μm graduation) at 20× magnification (Olympus BX 50). The extent of closure in the FKBP-L treated slides was compared to time matched sham treated controls and the % inhibition of wound closure compared to time matched controls calculated.
The in vitro migration assay used in these studies is a modified version of the method described by Ashton et al. (1999) see supra. HMEC-1 were plated into individual chambers on a glass slide and grown to 90% confluence overnight. The medium was removed and the monolayers wounded. The monolayer was re-supplemented with fresh medium and the required volume of each peptide (i.e., peptides 1-17, SEQ ID NOS: 12-28; Table 4 below) was added to give the required final concentration (10^−14-10^−6 M).
The monolayers were incubated for 24 h and then fixed in 4% PBS buffered paraformaldehyde. The extent of “wound” closure was blindly assessed microscopically by an independent investigator and quantified using a calibrated eyepiece graticule (1 mm/100 μm graduation) at 20× magnification (Olympus BX 50). […]

Molecule	effect on tumor cell migration ([1]; MDA-231, 10^−14-10^−7 M, 24 h)	potency compared with the full length recombinant protein on a mole/mole basis (HMEC-1; wound scrape, 7 h)	effect on tumor cell migration ([1]; MDA231, 24 hours)	delay of 50% wound closure versus control (HMEC-1; 750 ngml^−1) [h]	time until 50% wound closure (HMEC-1; 750 ngml^−1, single administration, control 7 hours) [h]	inhibition of HMEC-1 migration into the denuded area of the monolayer compared to time matched controls (HMEC-1; 750 ngml^−1, 7 hours) [%]	time until which the wound remained open (total wound closure) (HMEC-1; 750 ngml^−1, control 16 hours) [h]	optimum concentration for inhibition of migration (HMEC-1; 7 hours) [ngml^−1]	dose effective to prevent cell migration (HMEC-1; FIG. 4 dose response)
H-QIRQQPRDPPTETLELEVSPDPAS-OH [FKBP-L 24mer]	can inhibit	increased potency	–	–	–	–	–	–	–
B1	–	–	inhibits tumor cell migration in a dose-dependent manner	9	16	60	34	750	10^−6 M
